# Measured values taken from article PMC8247599.
# What was measured:
# [1] = system: aTm1 252-334 (Drosophila melanogaster); experiment: EMSA
# [2] = target: GST-tagged Khc^848–941 (Drosophila) (UniProt P17210); experiment: SPR
# [3] = target: aTm1^252–334 (Drosophila melanogaster); experiment: ITC
# GST-tagged Khc^848–941 (Drosophila), sequence (P17210 848-941): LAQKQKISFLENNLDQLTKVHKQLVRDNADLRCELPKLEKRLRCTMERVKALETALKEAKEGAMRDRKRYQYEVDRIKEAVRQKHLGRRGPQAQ
Kd [2] [µM],Kd [3] [µM],Substance,Kd [1] [µM]
,,UUUUUUUUUUUUUUUUUUUUUUUUU [oligo-(U25) RNA],> 10
0.141,10,aTm1^252–334 (domain or fragment),
